# In patent US20240376151A1, “STAPLED PEPTIDES AND METHODS THEREOF” (FOG PHARMACEUTICALS, INC., priority 2022, published 2024):
# Ends that are not written are not given here.
# Target: T1, beta-catenin (Homo sapiens, UniProt P35222)
# T1 construct: made in house; host or cells: E. coli BL21 (DE3) pLysS
# T1 sequence (P35222 134-665): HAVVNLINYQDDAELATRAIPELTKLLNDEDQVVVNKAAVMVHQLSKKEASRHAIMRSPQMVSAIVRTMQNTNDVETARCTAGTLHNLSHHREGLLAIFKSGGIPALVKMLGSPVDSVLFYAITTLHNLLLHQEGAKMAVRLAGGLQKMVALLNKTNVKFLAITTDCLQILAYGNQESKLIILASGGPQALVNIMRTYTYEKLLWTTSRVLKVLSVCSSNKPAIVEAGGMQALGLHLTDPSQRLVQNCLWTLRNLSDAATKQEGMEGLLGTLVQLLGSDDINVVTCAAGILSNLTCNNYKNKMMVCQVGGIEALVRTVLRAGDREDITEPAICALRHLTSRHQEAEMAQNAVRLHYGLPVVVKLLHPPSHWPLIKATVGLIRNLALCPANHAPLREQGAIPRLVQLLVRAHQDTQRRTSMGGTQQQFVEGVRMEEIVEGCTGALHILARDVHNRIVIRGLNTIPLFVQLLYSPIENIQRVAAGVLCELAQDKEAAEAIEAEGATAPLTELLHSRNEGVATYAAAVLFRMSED
# Assay: Phage Library Screening with NGS, beta-catenin
# Format: binding
# Conditions: for Target Concentration 10 (phage screen NGS readout): beta-catenin target concentration 10; for Target Concentration 10 (phage screen NGS readout) / Target Concentration 30 (phage screen NGS readout) / Target Concentration 100 (phage screen NGS readout) / Target Concentration 300 (phage screen NGS readout): no competitor; for Target Concentration 30 (phage screen NGS readout): beta-catenin target concentration 30; for Target Concentration 100 (phage screen NGS readout): beta-catenin target concentration 100; for Target Concentration 300 (phage screen NGS readout): beta-catenin target concentration 300; for Target Concentration 1000 (phage screen NGS readout): beta-catenin target concentration 1000
sequence,measurement,setting,value
DPAEWACEHAALTCWDQ,Target Concentration BLANK (phage screen NGS readout),first column,1
same,Target Concentration BLANK (phage screen NGS readout),fourth column,0
same,Target Concentration BLANK (phage screen NGS readout),second column,4
same,Target Concentration BLANK (phage screen NGS readout),third column,0
same,Target Concentration 10 (phage screen NGS readout),,6
same,Target Concentration 30 (phage screen NGS readout),,24
same,Target Concentration 100 (phage screen NGS readout),,148
same,Target Concentration 300 (phage screen NGS readout),,448
same,Target Concentration 1000 (phage screen NGS readout),first 1000 column,431
same,Target Concentration 1000 (phage screen NGS readout),second 1000 column,449
DPADDFCMWAAEHCELL,Target Concentration BLANK (phage screen NGS readout),first column,0
same,Target Concentration BLANK (phage screen NGS readout),fourth column,0
same,Target Concentration BLANK (phage screen NGS readout),second column,0
same,Target Concentration BLANK (phage screen NGS readout),third column,1
same,Target Concentration 10 (phage screen NGS readout),,10
same,Target Concentration 30 (phage screen NGS readout),,12
same,Target Concentration 100 (phage screen NGS readout),,81
same,Target Concentration 300 (phage screen NGS readout),,226
same,Target Concentration 1000 (phage screen NGS readout),first 1000 column,273
same,Target Concentration 1000 (phage screen NGS readout),second 1000 column,227
DPAILDCQLAAMDCSTW,Target Concentration BLANK (phage screen NGS readout),first column,0
same,Target Concentration BLANK (phage screen NGS readout),fourth column,0
same,Target Concentration BLANK (phage screen NGS readout),second column,0
same,Target Concentration BLANK (phage screen NGS readout),third column,0
same,Target Concentration 10 (phage screen NGS readout),,0
same,Target Concentration 30 (phage screen NGS readout),,6
same,Target Concentration 100 (phage screen NGS readout),,22
same,Target Concentration 300 (phage screen NGS readout),,21
same,Target Concentration 1000 (phage screen NGS readout),first 1000 column,25
same,Target Concentration 1000 (phage screen NGS readout),second 1000 column,55
DPADYECVIAAQVCQHF (not fully specified; cysteine pairing not given here),Target Concentration BLANK (phage screen NGS readout),first column,0
same,Target Concentration BLANK (phage screen NGS readout),fourth column,0
same,Target Concentration BLANK (phage screen NGS readout),second column,4
same,Target Concentration BLANK (phage screen NGS readout),third column,0
same,Target Concentration 10 (phage screen NGS readout),,0
same,Target Concentration 30 (phage screen NGS readout),,1
same,Target Concentration 100 (phage screen NGS readout),,11
same,Target Concentration 300 (phage screen NGS readout),,18
same,Target Concentration 1000 (phage screen NGS readout),first 1000 column,19
same,Target Concentration 1000 (phage screen NGS readout),second 1000 column,14
DPADWICEHAALTCQEF,Target Concentration BLANK (phage screen NGS readout),first column,0
same,Target Concentration BLANK (phage screen NGS readout),fourth column,0
same,Target Concentration BLANK (phage screen NGS readout),second column,1
same,Target Concentration BLANK (phage screen NGS readout),third column,0
same,Target Concentration 10 (phage screen NGS readout),,0
same,Target Concentration 30 (phage screen NGS readout),,2
same,Target Concentration 100 (phage screen NGS readout),,6
same,Target Concentration 300 (phage screen NGS readout),,15
same,Target Concentration 1000 (phage screen NGS readout),first 1000 column,12
same,Target Concentration 1000 (phage screen NGS readout),second 1000 column,14
DPAIIHCYQAAFQCQYM,Target Concentration BLANK (phage screen NGS readout),first column,0
same,Target Concentration BLANK (phage screen NGS readout),fourth column,0
same,Target Concentration BLANK (phage screen NGS readout),second column,0
same,Target Concentration BLANK (phage screen NGS readout),third column,0
same,Target Concentration 10 (phage screen NGS readout),,0
same,Target Concentration 30 (phage screen NGS readout),,0
same,Target Concentration 100 (phage screen NGS readout),,0
same,Target Concentration 300 (phage screen NGS readout),,0
same,Target Concentration 1000 (phage screen NGS readout),first 1000 column,7
same,Target Concentration 1000 (phage screen NGS readout),second 1000 column,0
DPASWDCDHAALLCTLD,Target Concentration BLANK (phage screen NGS readout),first column,0
same,Target Concentration BLANK (phage screen NGS readout),fourth column,1
same,Target Concentration BLANK (phage screen NGS readout),second column,0
same,Target Concentration BLANK (phage screen NGS readout),third column,0
same,Target Concentration 10 (phage screen NGS readout),,3
same,Target Concentration 30 (phage screen NGS readout),,6
same,Target Concentration 100 (phage screen NGS readout),,86
same,Target Concentration 300 (phage screen NGS readout),,257
same,Target Concentration 1000 (phage screen NGS readout),first 1000 column,283
same,Target Concentration 1000 (phage screen NGS readout),second 1000 column,238
DPARHECILAAHICEWE,Target Concentration BLANK (phage screen NGS readout),first column,1
same,Target Concentration BLANK (phage screen NGS readout),fourth column,0
same,Target Concentration BLANK (phage screen NGS readout),second column,2
same,Target Concentration BLANK (phage screen NGS readout),third column,2
same,Target Concentration 10 (phage screen NGS readout),,41
same,Target Concentration 30 (phage screen NGS readout),,151
same,Target Concentration 100 (phage screen NGS readout),,612
same,Target Concentration 300 (phage screen NGS readout),,1704
same,Target Concentration 1000 (phage screen NGS readout),first 1000 column,1683
same,Target Concentration 1000 (phage screen NGS readout),second 1000 column,1509
DPAVHRCFWAAEHCDLI,Target Concentration BLANK (phage screen NGS readout),first column,0
same,Target Concentration BLANK (phage screen NGS readout),fourth column,0
same,Target Concentration BLANK (phage screen NGS readout),second column,2
same,Target Concentration BLANK (phage screen NGS readout),third column,0
same,Target Concentration 10 (phage screen NGS readout),,0
same,Target Concentration 30 (phage screen NGS readout),,2
same,Target Concentration 100 (phage screen NGS readout),,11
same,Target Concentration 300 (phage screen NGS readout),,86
same,Target Concentration 1000 (phage screen NGS readout),first 1000 column,95
same,Target Concentration 1000 (phage screen NGS readout),second 1000 column,62
DPAILQCYEAAFSCHYQ,Target Concentration BLANK (phage screen NGS readout),first column,0
same,Target Concentration BLANK (phage screen NGS readout),fourth column,0
same,Target Concentration BLANK (phage screen NGS readout),second column,0
same,Target Concentration BLANK (phage screen NGS readout),third column,0
same,Target Concentration 10 (phage screen NGS readout),,0
same,Target Concentration 30 (phage screen NGS readout),,9
same,Target Concentration 100 (phage screen NGS readout),,40
same,Target Concentration 300 (phage screen NGS readout),,54
same,Target Concentration 1000 (phage screen NGS readout),first 1000 column,39
same,Target Concentration 1000 (phage screen NGS readout),second 1000 column,42
DPAIIRCYEAAFYCQNY,Target Concentration BLANK (phage screen NGS readout),first column,0
same,Target Concentration BLANK (phage screen NGS readout),fourth column,0
same,Target Concentration BLANK (phage screen NGS readout),second column,0
same,Target Concentration BLANK (phage screen NGS readout),third column,1
same,Target Concentration 10 (phage screen NGS readout),,0
same,Target Concentration 30 (phage screen NGS readout),,3
same,Target Concentration 100 (phage screen NGS readout),,10
same,Target Concentration 300 (phage screen NGS readout),,67
same,Target Concentration 1000 (phage screen NGS readout),first 1000 column,93
same,Target Concentration 1000 (phage screen NGS readout),second 1000 column,94
DPAEIICYEAAFLCQYQ,Target Concentration BLANK (phage screen NGS readout),first column,0
same,Target Concentration BLANK (phage screen NGS readout),fourth column,0
same,Target Concentration BLANK (phage screen NGS readout),second column,0
same,Target Concentration BLANK (phage screen NGS readout),third column,0
same,Target Concentration 10 (phage screen NGS readout),,0
same,Target Concentration 30 (phage screen NGS readout),,0
same,Target Concentration 100 (phage screen NGS readout),,0
same,Target Concentration 300 (phage screen NGS readout),,15
same,Target Concentration 1000 (phage screen NGS readout),first 1000 column,38
same,Target Concentration 1000 (phage screen NGS readout),second 1000 column,26
DPAILDCSIAAIDCAYS,Target Concentration BLANK (phage screen NGS readout),first column,0
same,Target Concentration BLANK (phage screen NGS readout),fourth column,0
same,Target Concentration BLANK (phage screen NGS readout),second column,0
same,Target Concentration BLANK (phage screen NGS readout),third column,0
same,Target Concentration 10 (phage screen NGS readout),,0
same,Target Concentration 30 (phage screen NGS readout),,0
same,Target Concentration 100 (phage screen NGS readout),,16
same,Target Concentration 300 (phage screen NGS readout),,42
same,Target Concentration 1000 (phage screen NGS readout),first 1000 column,39
same,Target Concentration 1000 (phage screen NGS readout),second 1000 column,29
DPAWSDCIWAAEHCQLI,Target Concentration BLANK (phage screen NGS readout),first column,0
same,Target Concentration BLANK (phage screen NGS readout),fourth column,0
same,Target Concentration BLANK (phage screen NGS readout),second column,1
same,Target Concentration BLANK (phage screen NGS readout),third column,0
same,Target Concentration 10 (phage screen NGS readout),,0
same,Target Concentration 30 (phage screen NGS readout),,3
same,Target Concentration 100 (phage screen NGS readout),,5
same,Target Concentration 300 (phage screen NGS readout),,127
same,Target Concentration 1000 (phage screen NGS readout),first 1000 column,109
same,Target Concentration 1000 (phage screen NGS readout),second 1000 column,85
DPAVIQCYQAAFHCDYQ,Target Concentration BLANK (phage screen NGS readout),first column,0
same,Target Concentration BLANK (phage screen NGS readout),fourth column,0
same,Target Concentration BLANK (phage screen NGS readout),second column,0
same,Target Concentration BLANK (phage screen NGS readout),third column,3
same,Target Concentration 10 (phage screen NGS readout),,0
same,Target Concentration 30 (phage screen NGS readout),,0
same,Target Concentration 100 (phage screen NGS readout),,0
same,Target Concentration 300 (phage screen NGS readout),,13
same,Target Concentration 1000 (phage screen NGS readout),first 1000 column,12
same,Target Concentration 1000 (phage screen NGS readout),second 1000 column,30
